Positions count from the first letter of the chain named.

From patent publication CN114685654A (GUANGDONG DONGSUNANG PHARMACEUTICAL CO LTD, dated 2022) come the findings set out here.

Assay [1] concerns the target T1, 蛋白B.
T1 construct: Counter-screen protein; also called FGF21-Fc融合蛋白
T1 chain: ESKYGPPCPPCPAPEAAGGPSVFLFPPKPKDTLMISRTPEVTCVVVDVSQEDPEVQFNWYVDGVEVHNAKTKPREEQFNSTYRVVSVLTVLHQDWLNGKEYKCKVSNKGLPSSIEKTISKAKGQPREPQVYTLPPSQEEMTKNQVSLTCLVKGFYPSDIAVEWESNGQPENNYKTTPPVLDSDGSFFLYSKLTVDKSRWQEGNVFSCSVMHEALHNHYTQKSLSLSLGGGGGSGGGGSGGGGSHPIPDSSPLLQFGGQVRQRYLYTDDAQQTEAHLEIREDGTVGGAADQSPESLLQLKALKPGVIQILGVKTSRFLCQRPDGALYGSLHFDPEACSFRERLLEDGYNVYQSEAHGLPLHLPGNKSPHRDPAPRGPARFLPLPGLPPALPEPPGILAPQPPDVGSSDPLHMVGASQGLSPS
As to the kind of experiment: sandwich ELISA, antibody coated at 2 μg/mL, detection with HRP mouse anti-human IgG4 Fc. In general terms: ELISA stands for enzyme-linked immunosorbent assay.

In assay [2] the target is T2, 蛋白A.
T2 construct: also called FGF21-Fc融合蛋白
T2 chain: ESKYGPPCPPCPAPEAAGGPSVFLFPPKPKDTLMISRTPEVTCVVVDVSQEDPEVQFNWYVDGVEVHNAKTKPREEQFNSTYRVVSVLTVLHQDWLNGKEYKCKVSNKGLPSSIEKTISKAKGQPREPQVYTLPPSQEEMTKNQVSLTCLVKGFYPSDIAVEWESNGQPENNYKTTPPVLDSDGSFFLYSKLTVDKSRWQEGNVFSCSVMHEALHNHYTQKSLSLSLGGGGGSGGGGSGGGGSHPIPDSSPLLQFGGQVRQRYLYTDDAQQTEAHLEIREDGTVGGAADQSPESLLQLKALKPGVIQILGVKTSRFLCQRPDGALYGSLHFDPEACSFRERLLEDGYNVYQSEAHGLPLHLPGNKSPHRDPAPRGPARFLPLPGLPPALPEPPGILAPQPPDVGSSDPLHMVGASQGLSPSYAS
As to the kind of experiment: sandwich ELISA, antibody coated at 2 μg/mL, protein at 5 and 10 ng/mL, detection with HRP mouse anti-human IgG4 Fc.

For assay [3], the target named is T1, 蛋白B. As to the kind of experiment: ELISA, protein coated.
Assay [4] concerns the target T2, 蛋白A. As to the kind of experiment: ELISA, protein coated at 0.1, 1, 5 μg/mL, antibody 1 μg/mL.
Assay [5] addresses T1, 蛋白B. As to the kind of experiment: indirect ELISA, hybridoma supernatant on coated protein.
Assay [6] addresses T2, 蛋白A. Described as above.

B1: MM21H (antibody, V domains shown)
VH: QIQLVQSGPELKKTGETVKMSCKASGYTFTNYGMNWVKQAPGKGLKLMGWINTYTGKPTYADDFKGRFAFSLETSASTAYLQINNLKNEDTATYFCATNYYDYDVAYWGQGTLVTVSA
VL: DIVMTQAAFSNPVTLGTSASISCRSSKSLLHSNGITYLYWFLQKPGQSPQVLIYQMSSLASGVPDRFSSSGSGTDFTLRISRVEAEDVGVYYCAQTLELPTFGGGTKLEIK
notes: also called MM21H鼠源单克隆抗体
As for B1, the binding result is reported as “no binding (tested: 5ng/mL、10ng/mL)” in assay [1] and “binds” in assay [2].

B2: MM24T (antibody, mouse IgG1, kappa, V domains shown)
VH: B1 VH with T14P, M20I, I83L, V105I, T115A
VL: DIVMTQAAFSNPVTLGTSASISCRSSKSLLHSNGITYLYWFLQKPGQSPQVLIYQMSNLASGVPDRFSSSGSGTDFTLRISRVEAEDVGVYYCAQTLELPTFGGGTKLEIKR
notes: only the CDRs are; also called MM24T重组抗体; MM24T抗体
For B2, the binding result was “no binding (tested: antibody 1μg/mL; coating 0.1、1、5μg/mL)” in assay [3] and “binds” in assay [4].

B3: MM24H (antibody, V domains shown)
VH: B1 VH with T14P, M20I, I83L, V105I, T115A
VL: B1 VL with S58N
notes: also called MM24H鼠源单克隆抗体
For B3, the binding result in assay [5] is reported as “no binding”; in assay [6] it was “binds”.

B4: MM21T (antibody, mouse IgG1, kappa, V domains shown)
VH: B1 VH
VL: B2 VL with N58S
notes: only the CDRs are; also called MM21T重组抗体; MM21T抗体
In the case of B4, the binding result in assay [3] is “no binding (tested: antibody 1μg/mL; coating 0.1、1、5μg/mL)”; in assay [4], “binds”.
